Laboratory results taken from patent publication US20210079111A1 (ABCYTE THERAPEUTICS, published 2021).
One block for each molecule: values may come before it.

Tests used:
[1] = molecular target: CD19 CAR chain of CD19 CAR-mIL7 (CAR-1-CD19/CAR-2-IL-7, plasmid PC035), on transduced T cells; test: flow cytometry, CD19 CAR-mIL7 T cells stained with Protein L
[2] = molecular target: T1, CD19 on CD19 positive cells (Raji, Nalm-6) (human, UniProt P15391 20-556); test: cell-based or functional assay
T1 sequence (looked up): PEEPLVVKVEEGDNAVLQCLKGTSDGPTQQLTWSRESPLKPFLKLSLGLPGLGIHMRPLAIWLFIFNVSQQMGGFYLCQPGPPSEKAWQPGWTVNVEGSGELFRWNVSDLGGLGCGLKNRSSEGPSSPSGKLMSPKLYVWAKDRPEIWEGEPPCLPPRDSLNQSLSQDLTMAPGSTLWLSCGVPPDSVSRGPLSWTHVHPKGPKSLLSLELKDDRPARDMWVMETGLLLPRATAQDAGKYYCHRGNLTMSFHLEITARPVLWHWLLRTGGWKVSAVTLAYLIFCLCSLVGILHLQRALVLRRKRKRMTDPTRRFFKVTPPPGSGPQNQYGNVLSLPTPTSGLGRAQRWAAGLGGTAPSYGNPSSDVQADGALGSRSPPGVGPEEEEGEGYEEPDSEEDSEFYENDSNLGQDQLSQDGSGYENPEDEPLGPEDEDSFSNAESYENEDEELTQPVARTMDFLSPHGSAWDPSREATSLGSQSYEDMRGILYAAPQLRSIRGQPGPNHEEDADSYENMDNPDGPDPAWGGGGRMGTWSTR

[3] = molecular target: T2, CD20 on CD20 positive cells (Raji, Nalm-6) (UniProt P11836 1-297, limits assumed); test: cell-based or functional assay
T2 sequence (looked up): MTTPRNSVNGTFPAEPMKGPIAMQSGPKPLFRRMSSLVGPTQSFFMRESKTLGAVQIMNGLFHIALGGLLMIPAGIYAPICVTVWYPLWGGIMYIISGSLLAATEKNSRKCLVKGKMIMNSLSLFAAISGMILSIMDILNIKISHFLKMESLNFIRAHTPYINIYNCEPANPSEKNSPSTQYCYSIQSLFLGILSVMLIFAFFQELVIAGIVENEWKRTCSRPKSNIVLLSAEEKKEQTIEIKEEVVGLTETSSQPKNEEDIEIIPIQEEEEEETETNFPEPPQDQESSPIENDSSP

percent positive cells [1]: 49%
Molecule: Protein L

B1: CAR-1-CD19 (full humanized anti-CD19 single CAR), on transduced T cells (other)
chain: DIQMTQSPSSLSASVGDRVTITCRASQDISKYLNWYQQKPGKAPKLLIYHTSRLHSGVPSRFSGSGSGTDYTLTISSLQPEDFATYYCQQGNTLPYTFGGGTKVEIKGSTSGGGSGGGSGGGGSSQVQLQESGPGLVKPSQTLSLTCTVSGVSLPDYGVSWIRQPPGKGLEWLGVIWGSETTYYNSALKSRLTISRDNSKNTLYLQMNSLRAEDTAVYYCAKHYYYGGSYAMDYWGQGTTVTVSSTTTPAPRPPTPAPTIASQPLSLRPEACRPAAGGAVHTRGLDFACDFWLPIGCAAFVVVCILGCILICWLTKKKYSSSVHDPNGEYMFMRAVNTAKKSRLTDVTLRVKFSRSADAPAYKQGQNQLYNELNLGRREEYDVLDKRRGRDPEMGGKPRRKNPQEGLYNELQKDKMAEAYSEIGMKGERRRGKGHDGLYQGLSTATKDTYDALHMQALPPR
target cell killing at E/T ratio at 10:1, 4 h, Raji and Nalm-6 co-culture (flow cytometry, CFSE/Annexin/PI) [2]: > 90%

B2: CAR-1-CD20 (full humanized anti-CD20 single CAR), on transduced T cells (other)
chain: EIVLTQSPATLSLSPGERATMTCRASSSVNYMDWYQQKPGQAPRPWIYATSNLASGVPARFSGSGSGTDFTLTISSLEPEDFAVYYCQQWSFNPPTFGGGTKVEIKGSTSGGGSGGGSGGGGSSQVQLVQSGAEVKKPGASVKVSCKASGYTFTSYNMHWVRQAPGQGLEWIGAIYPGNGDTSYNQKFKGKATLTRDTSTSTVYMELSSLRSEDTAVYYCARSNYYGSSYWFFDVWGQGTTVTVSSTTTPAPRPPTPAPTIASQPLSLRPEACRPAAGGAVHTRGLDFACDFWLPIGCAAFVVVCILGCILICWLTKKKYSSSVHDPNGEYMFMRAVNTAKKSRLTDVTLRVKFSRSADAPAYKQGQNQLYNELNLGRREEYDVLDKRRGRDPEMGGKPRRKNPQEGLYNELQKDKMAEAYSEIGMKGERRRGKGHDGLYQGLSTATKDTYDALHMQALPPR
target cell killing at E/T ratio at 10:1, 4 h, Raji and Nalm-6 co-culture (flow cytometry, CFSE/Annexin/PI) [3]: > 80%
